The source of these data is patent US20210332136A1.

The test addresses human PD-L1 on RT4 human bladder cancer cells (human) (UniProt Q9NZQ7). Put plainly: cell-based or functional assay.

Sequence of human PD-L1 on RT4 human bladder cancer cells (human) (Q9NZQ7 19-290): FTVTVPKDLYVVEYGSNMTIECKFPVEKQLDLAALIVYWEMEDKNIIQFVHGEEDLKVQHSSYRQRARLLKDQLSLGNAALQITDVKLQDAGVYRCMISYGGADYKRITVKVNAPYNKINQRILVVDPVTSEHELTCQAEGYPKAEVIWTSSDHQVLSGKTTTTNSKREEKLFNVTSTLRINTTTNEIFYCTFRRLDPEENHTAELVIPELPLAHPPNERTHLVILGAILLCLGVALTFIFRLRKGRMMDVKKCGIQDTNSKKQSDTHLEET

Turning to atezolizumab (antibody), the viability of RT4 cells treated in vitro with rabusertib (Chk1 inhibitor) plus atezolizumab stood at 100%.
